The record followed here is paper PMC8410769, “A CDK-regulated chromatin segregase promoting chromosome replication” (Nature Communications, 2021).

The data set deals with the molecule itself. Briefly: SEC; Superose 6 (3.2/300) in 150 mM KCl, 25 mM Tris-HCl pH 7.2, 5% glycerol, 0.05% NP-40, 1 mM EDTA, 4 mM MgCl2; purified Yta7 and mutants.

B1: Yta7 ATP-binding mutant (K460A, Walker A), 3xFLAG-tagged (enzyme, S. cerevisiae, UniProt P40340 1-1379, looked up)
chain: MARNLRNRRGSDVEDASNAKVGYETQIKDENGIIHTTTRSLRKINYAEIEKVFDFLEDDQVMDKDETPVDVTSDEHHNNNQKGDDEDDDVDLVSPHENARTNEELTNERNLRKRKAHDPEEDDESFHEEDVDDDEEEEEADEFEDEYLDEDSKDNNRRRRAADRKFVVPDPDDDEEYDEDDEEGDRISHSASSKRLKRANSRRTRSSRHPETPPPVRRALRSRTRHSRTSNEENDDENDNSRNEALTLADEIRELQEDSPIREKRFLRERTKPVNYKLPPPLTASNAEEFIDKNNNALSFHNPSPARRGRGGWNASQNSGPTRRLFPTGGPFGGNDVTTIFGKNTNFYNQVPSAFSDNNNNKLILDSDSSDDEILPLGVTPKTKKENTQKKKKKKPEIADLDPLGVDMNVNFDDIGGLDNYIDQLKEMVALPLLYPELYQNFNITPPRGVLFHGPPGTGATLMARALAASCSSDERKITFFMRKGADILSKWVGEAERQLRLLFEEAKKHQPSIIFFDEIDGLAPVRSSKQEQIHASIVSTLLALMDGMDNRGQVIVIGATNRPDAVDPALRRPGRFDREFYFPLPDVKARFKILQIQTRKWSSPLSTNFIDKLAFLTKGYGGADLRSLCTEAALISIQRSFPQIYRSNDKLLVDPSKIKVKVSDFMLALKKIVPSSARSTGSSPQPLPELIKPLLADQLNNLKNKLDYMLNIKDTTFQRNTSLLQNFIDYEEYSGEEEEHDKYGGNEDTSSFRSYEFFESMAESQICKPRLLINGPKGNGQQYVGAAILNYLEEFNVQNLDLASLVSESSRTIEAAVVQSFMEAKKRQPSVVFIPNLDIWINTIPENVILVLSGLFRSLQSNEKILLLCLAENLDISEVKNGILSDFAFDKNIFQLHKPSKENITRYFSNLIELLKTKPSDIPMKKRRVKPLPELQKVTSNAAPTNFDENGEPLSEKVVLRRKLKSFQHQDMRLKNVLKIKLSGLMDLFKNRYKRFRKPPIDDAFLVHLFEPETSNDPNWQPAYIKDENMILEVSTGRKFFNMDLDIVEERLWNGYYSEPKQFLKDIELIYRDANTIGDRERVIKASEMFANAQMGIEEISTPDFIQECKATRQRDLERQELFLEDEEKRAAMELEAKEQSQENILQEPDLKDNKANEFGVAAGNQLQAQLQTTINTASIVNNSEVPQPIDTNLYKKEIPAAIPSAVDKEKAVIPEDSGANEEYTTELIQATCTSEITTDDDERARKEPKENEDSLQTQVTEENFSKIDANTNNINHVKEIQSVNKPNSLHETVEKRERSPIPKEVVEPEQGKKSDKELILTPEQIKKVSACLIEHCQNFTVSQLEDVHSSVAKIIWKSKSAWDKTGTVDEIIKFLSE
notes: Yta7, Saccharomyces cerevisiae; K460A mutant of the Walker A motif within the active AAA+ domain; also called ATPase mutant; source: S. cerevisiae (GAL1-10 promoter, G1-arrested, endogenous copy eliminated), purified (anti-FLAG M2, MonoQ, SEC); not shown: 3xFLAG, C-terminal, kept
As to B1, the “stoichiometry N” value came to 6.
